Assay results reported in PMC10786891, “Massively parallel profiling of RNA-targeting CRISPR-Cas13d”.

T1: EsCas13d, nuclease-dead (Eubacterium siraeum, UniProt B0MS50, R295A;H300A;R849A;H854A)
T1 sequence: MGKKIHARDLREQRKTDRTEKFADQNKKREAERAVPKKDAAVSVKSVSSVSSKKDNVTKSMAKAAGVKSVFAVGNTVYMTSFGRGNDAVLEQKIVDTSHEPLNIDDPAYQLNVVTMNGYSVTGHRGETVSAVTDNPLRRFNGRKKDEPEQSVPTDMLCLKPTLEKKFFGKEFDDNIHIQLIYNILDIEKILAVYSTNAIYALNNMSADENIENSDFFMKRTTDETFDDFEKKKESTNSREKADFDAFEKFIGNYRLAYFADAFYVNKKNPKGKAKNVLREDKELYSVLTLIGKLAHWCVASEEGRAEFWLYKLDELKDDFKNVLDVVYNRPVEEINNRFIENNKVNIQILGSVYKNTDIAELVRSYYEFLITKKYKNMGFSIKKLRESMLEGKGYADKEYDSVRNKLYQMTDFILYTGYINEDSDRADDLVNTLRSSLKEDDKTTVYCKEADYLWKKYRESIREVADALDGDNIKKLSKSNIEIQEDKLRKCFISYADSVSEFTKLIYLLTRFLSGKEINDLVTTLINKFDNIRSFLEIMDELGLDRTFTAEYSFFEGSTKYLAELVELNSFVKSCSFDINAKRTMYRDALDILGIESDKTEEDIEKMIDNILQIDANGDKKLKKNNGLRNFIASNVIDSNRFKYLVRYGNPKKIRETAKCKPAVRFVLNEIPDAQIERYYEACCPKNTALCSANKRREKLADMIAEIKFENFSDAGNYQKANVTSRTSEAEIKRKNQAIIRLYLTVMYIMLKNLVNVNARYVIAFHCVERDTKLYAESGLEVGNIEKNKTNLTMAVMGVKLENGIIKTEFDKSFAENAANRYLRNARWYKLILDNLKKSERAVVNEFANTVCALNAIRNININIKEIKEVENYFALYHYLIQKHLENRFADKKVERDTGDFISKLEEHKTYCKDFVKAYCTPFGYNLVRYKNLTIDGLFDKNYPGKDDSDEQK


target: T1, EsCas13d, nuclease-dead; assay: crRNA (strand 1, pre-loaded); Mg2+; 40 mM Tris-HCl pH 7.5, 150 mM NaCl, 6 mM MgCl2, 1 mM DTT, 0.1% Tween-20, 0.2 mg/ml BSA; 25 C; 10 min per concentration, then washed; settings: tags: His6-TwinStrep-SUMO cleaved; N-terminal SNAP kept (SNAP-Surface 488); label: 3' end held by stalled T7 RNA polymerase

Binder	Kd [nM]
target 1 C2A,G17U (mixed) RNA 1: CACCCGUGCAAAAAUGCAGGGGUCUAAAACUGAGCGGAUAACCUCUCUAUGG RNA 2: GGGAAUGGAUCCACAUCUACGAAUUCGUACCAUAUAGAGGUUAUCCGCUAACCGAGAUCGGAAGAGCACACGU	30.5 ± 2.6
target 1 insG 3' of 3,insA 3' of 2 (mixed) RNA 1: CACCCGUGCAAAAAUGCAGGGGUCUAAAACUGAGCGGAUAACCUCUCUAUGG RNA 2: GGGAAUGGAUCCACAUCUACGAAUUCGUACCAUAGAGAGGUUAUCCGCUGCAACCGAGAUCGGAAGAGCACACGU	6.5 ± 0.4
target 1 C2U,C4U (mixed) RNA 1: CACCCGUGCAAAAAUGCAGGGGUCUAAAACUGAGCGGAUAACCUCUCUAUGG RNA 2: GGGAAUGGAUCCACAUCUACGAAUUCGUACCAUAGAGAGGUUAUCCGUUUACCGAGAUCGGAAGAGCACACGU	58 ± 17
target 3 C1G,A9G (mixed) RNA 1: CACCCGUGCAAAAUUGCAGGGGUCUAAAACGACCUGAAUAUUUCAGAUCAAA RNA 2: GGGAAUGGAUCCACAUCUACGAAUUCGUUUUUGAUCUGAAAUGUUCAGGUGUGCAGAUCGGAAGAGCACACGU	33.5 ± 8.5
target 3 insC 3' of 11,insU 3' of 3 (mixed) RNA 1: CACCCGUGCAAAAUUGCAGGGGUCUAAAACGACCUGAAUAUUUCAGAUCAAA RNA 2: GGGAAUGGAUCCACAUCUACGAAUUCGUUUUUGAUCUGAAACUAUUCAGGUUCUGCAGAUCGGAAGAGCACACGU	74.5 ± 33.5
target 3 insA 3' of 22,insG 3' of 2 (mixed) RNA 1: CACCCGUGCAAAAUUGCAGGGGUCUAAAACGACCUGAAUAUUUCAGAUCAAA RNA 2: GGGAAUGGAUCCACAUCUACGAAUUCGUUUAUUGAUCUGAAAUAUUCAGGUGCUGCAGAUCGGAAGAGCACACGU	32.9 ± 4.15
target 3 insA 3' of 10,insA 3' of 8 (mixed) RNA 1: CACCCGUGCAAAAUUGCAGGGGUCUAAAACGACCUGAAUAUUUCAGAUCAAA RNA 2: GGGAAUGGAUCCACAUCUACGAAUUCGUUUUUGAUCUGAAAUAAUAUCAGGUCUGCAGAUCGGAAGAGCACACGU	110 ± 28
target 3 insU 3' of 13,insU 3' of 3 (mixed) RNA 1: CACCCGUGCAAAAUUGCAGGGGUCUAAAACGACCUGAAUAUUUCAGAUCAAA RNA 2: GGGAAUGGAUCCACAUCUACGAAUUCGUUUUUGAUCUGAUAAUAUUCAGGUUCUGCAGAUCGGAAGAGCACACGU	64.5 ± 20
target 3 insG 3' of 22,insG 3' of 22 (mixed) RNA 1: CACCCGUGCAAAAUUGCAGGGGUCUAAAACGACCUGAAUAUUUCAGAUCAAA RNA 2: GGGAAUGGAUCCACAUCUACGAAUUCGUUUGGUUGAUCUGAAAUAUUCAGGUCUGCAGAUCGGAAGAGCACACGU	64.5 ± 13.5
target 3 G4A,A5U (mixed) RNA 1: CACCCGUGCAAAAUUGCAGGGGUCUAAAACGACCUGAAUAUUUCAGAUCAAA RNA 2: GGGAAUGGAUCCACAUCUACGAAUUCGUUUUUGAUCUGAAAUAUUCUAGUCUGCAGAUCGGAAGAGCACACGU	19.3 ± 2.25
target 3 G4U,A9G (mixed) RNA 1: CACCCGUGCAAAAUUGCAGGGGUCUAAAACGACCUGAAUAUUUCAGAUCAAA RNA 2: GGGAAUGGAUCCACAUCUACGAAUUCGUUUUUGAUCUGAAAUGUUCAUGUCUGCAGAUCGGAAGAGCACACGU	37.5 ± 4
target 3 insG 3' of 22,insG 3' of 2 (mixed) RNA 1: CACCCGUGCAAAAUUGCAGGGGUCUAAAACGACCUGAAUAUUUCAGAUCAAA RNA 2: GGGAAUGGAUCCACAUCUACGAAUUCGUUUGUUGAUCUGAAAUAUUCAGGUGCUGCAGAUCGGAAGAGCACACGU	61 ± 23
target 3 G3C,G4U (mixed) RNA 1: CACCCGUGCAAAAUUGCAGGGGUCUAAAACGACCUGAAUAUUUCAGAUCAAA RNA 2: GGGAAUGGAUCCACAUCUACGAAUUCGUUUUUGAUCUGAAAUAUUCAUCUCUGCAGAUCGGAAGAGCACACGU	18.3 ± 3.2
target 3 insC 3' of 8,insA 3' of 3 (mixed) RNA 1: CACCCGUGCAAAAUUGCAGGGGUCUAAAACGACCUGAAUAUUUCAGAUCAAA RNA 2: GGGAAUGGAUCCACAUCUACGAAUUCGUUUUUGAUCUGAAAUAUCUCAGGAUCUGCAGAUCGGAAGAGCACACGU	93 ± 27
target 3 insA 3' of 10,insU 3' of 6 (mixed) RNA 1: CACCCGUGCAAAAUUGCAGGGGUCUAAAACGACCUGAAUAUUUCAGAUCAAA RNA 2: GGGAAUGGAUCCACAUCUACGAAUUCGUUUUUGAUCUGAAAUAAUUCUAGGUCUGCAGAUCGGAAGAGCACACGU	79.5 ± 14.5
target 3 insU 3' of 22,insG 3' of 7 (mixed) RNA 1: CACCCGUGCAAAAUUGCAGGGGUCUAAAACGACCUGAAUAUUUCAGAUCAAA RNA 2: GGGAAUGGAUCCACAUCUACGAAUUCGUUUUUUGAUCUGAAAUAUUGCAGGUCUGCAGAUCGGAAGAGCACACGU	85 ± 26.5
target 3 G4U,U7C (mixed) RNA 1: CACCCGUGCAAAAUUGCAGGGGUCUAAAACGACCUGAAUAUUUCAGAUCAAA RNA 2: GGGAAUGGAUCCACAUCUACGAAUUCGUUUUUGAUCUGAAAUAUCCAUGUCUGCAGAUCGGAAGAGCACACGU	120 ± 40
target 3 insA 3' of 14,insG 3' of 2 (mixed) RNA 1: CACCCGUGCAAAAUUGCAGGGGUCUAAAACGACCUGAAUAUUUCAGAUCAAA RNA 2: GGGAAUGGAUCCACAUCUACGAAUUCGUUUUUGAUCUGAAAAUAUUCAGGUGCUGCAGAUCGGAAGAGCACACGU	32.8 ± 3.65
target 3 G4C,U21C (mixed) RNA 1: CACCCGUGCAAAAUUGCAGGGGUCUAAAACGACCUGAAUAUUUCAGAUCAAA RNA 2: GGGAAUGGAUCCACAUCUACGAAUUCGUUUCUGAUCUGAAAUAUUCACGUCUGCAGAUCGGAAGAGCACACGU	60 ± 21
target 3 C6U,U8A (mixed) RNA 1: CACCCGUGCAAAAUUGCAGGGGUCUAAAACGACCUGAAUAUUUCAGAUCAAA RNA 2: GGGAAUGGAUCCACAUCUACGAAUUCGUUUUUGAUCUGAAAUAAUUAGGUCUGCAGAUCGGAAGAGCACACGU	50.8 ± 4.85
target 3 insC 3' of 21,insU 3' of 4 (mixed) RNA 1: CACCCGUGCAAAAUUGCAGGGGUCUAAAACGACCUGAAUAUUUCAGAUCAAA RNA 2: GGGAAUGGAUCCACAUCUACGAAUUCGUUUUCUGAUCUGAAAUAUUCAGUGUCUGCAGAUCGGAAGAGCACACGU	~68.5
target 3 A5G,C6A (mixed) RNA 1: CACCCGUGCAAAAUUGCAGGGGUCUAAAACGACCUGAAUAUUUCAGAUCAAA RNA 2: GGGAAUGGAUCCACAUCUACGAAUUCGUUUUUGAUCUGAAAUAUUAGGGUCUGCAGAUCGGAAGAGCACACGU	34.1 ± 3.35
target 3 U21A,U22C (mixed) RNA 1: CACCCGUGCAAAAUUGCAGGGGUCUAAAACGACCUGAAUAUUUCAGAUCAAA RNA 2: GGGAAUGGAUCCACAUCUACGAAUUCGUUCAUGAUCUGAAAUAUUCAGGUCUGCAGAUCGGAAGAGCACACGU	37.3 ± 5.65
target 3 insG 3' of 8,insU 3' of 3 (mixed) RNA 1: CACCCGUGCAAAAUUGCAGGGGUCUAAAACGACCUGAAUAUUUCAGAUCAAA RNA 2: GGGAAUGGAUCCACAUCUACGAAUUCGUUUUUGAUCUGAAAUAUGUCAGGUUCUGCAGAUCGGAAGAGCACACGU	85.5 ± 29.5
target 3 U2A,U7G (mixed) RNA 1: CACCCGUGCAAAAUUGCAGGGGUCUAAAACGACCUGAAUAUUUCAGAUCAAA RNA 2: GGGAAUGGAUCCACAUCUACGAAUUCGUUUUUGAUCUGAAAUAUGCAGGACUGCAGAUCGGAAGAGCACACGU	62.5 ± 10.5
target 3 U2C,G4U (mixed) RNA 1: CACCCGUGCAAAAUUGCAGGGGUCUAAAACGACCUGAAUAUUUCAGAUCAAA RNA 2: GGGAAUGGAUCCACAUCUACGAAUUCGUUUUUGAUCUGAAAUAUUCAUGCCUGCAGAUCGGAAGAGCACACGU	23 ± 5
target 3 G19U,U22A (mixed) RNA 1: CACCCGUGCAAAAUUGCAGGGGUCUAAAACGACCUGAAUAUUUCAGAUCAAA RNA 2: GGGAAUGGAUCCACAUCUACGAAUUCGUUAUUUAUCUGAAAUAUUCAGGUCUGCAGAUCGGAAGAGCACACGU	80 ± 7
target 3 U21C,U22A (mixed) RNA 1: CACCCGUGCAAAAUUGCAGGGGUCUAAAACGACCUGAAUAUUUCAGAUCAAA RNA 2: GGGAAUGGAUCCACAUCUACGAAUUCGUUACUGAUCUGAAAUAUUCAGGUCUGCAGAUCGGAAGAGCACACGU	30.5 ± 7
